Laboratory results: CN116789813A

Target: 突变型金黄色葡萄球菌α-溶血素(mHla), Hla(H35L) (Staphylococcus aureus (strain MRSA 252))
Experiment: ELISA, mHla coated at 2μg/mL, anti-human IgG Fab-HRP detection

B1: 全人源Hla单克隆抗体Hla-38 (antibody, V domains shown)
VH: QVQLLESGGGVVQPGRSLRLSCIVSGFDLNSFAMHWVRQPPGKGLEWVAVIWHDGSERFYAASVKGRFTISRDTSRNTLFLQMNSLRVEDTAVYYCAKSGDYYENSGYFGSWGQGALVTVSS
VL: ELVLTQSPATLSVSPGERATLSCRASQSVGNDLAWYQQKPGQAPRLLIYGASTRATGIPARFSGSGFGTEFTLTISSLQSEDFAVYYCQQYNNWWTFGQGTKVDIK
EC50: 0.849 µg/mL
